{
  "source": "patent US20130326725",
  "test_in_all_cases": "cell_activity",
  "key": {"[1]": {"tested_on": "ZFN 107830R (28492) (synthetic construct)", "details": "as pair 107830L/R (pKG7479); tomato protoplasts, 48 h; also active in yeast assay"}, "[2]": {"tested_on": "ZFN 107830L (28491) (synthetic construct)", "details": "as pair 107830L/R (pKG7479); tomato protoplasts, 48 h; also active in yeast assay"}, "[3]": {"tested_on": "ZFN 107832R (28536) (synthetic construct)", "details": "as pair 107832L/R (pKG7480); tomato protoplasts, 48 h; also active in yeast assay"}, "[4]": {"tested_on": "ZFN 107832L (28535) (synthetic construct)", "details": "as pair 107832L/R (pKG7480); tomato protoplasts, 48 h; also active in yeast assay"}, "[5]": {"tested_on": "ZFN 107835L (28563) (synthetic construct)", "details": "as pair 107835L/R (pKG7482); tomato protoplasts, 48 h; also active in yeast assay"}, "[6]": {"tested_on": "ZFN 107835R (28564) (synthetic construct)", "details": "as pair 107835L/R (pKG7482); tomato protoplasts, 48 h; also active in yeast assay"}, "[7]": {"tested_on": "ZFN 107833L (28549) (synthetic construct)", "details": "as pair 107833L/R (pKG7481); tomato protoplasts, 48 h; also active in yeast assay"}, "[8]": {"tested_on": "ZFN 107833R (28550) (synthetic construct)", "details": "as pair 107833L/R (pKG7481); tomato protoplasts, 48 h; also active in yeast assay"}},
  "data": [
    {"sequence": "AGCATCCTATGTATCTCGCCGTGGATTCGCATCGGGATCCG (double strand) [107830R target]", "values": [
      {"measurement": "activity (% indel clones)", "setting": "[1]", "result": 4.1}
    ]},
    {"sequence": "CGGATCCCGATGCGAATCCACGGCGAGATACATAGGATGCT (double strand) [107830L target]", "values": [
      {"measurement": "activity (% indel clones)", "setting": "[2]", "result": 4.1}
    ]},
    {"sequence": "CTCTTTGGAGTTACCATGCTTGATGTGGTTAGGGCCAAG (double strand) [107832R target]", "values": [
      {"measurement": "activity (% indel clones)", "setting": "[3]", "result": 5.5}
    ]},
    {"sequence": "CTTGGCCCTAACCACATCAAGCATGGTAACTCCAAAGAG (double strand) [107832L target]", "values": [
      {"measurement": "activity (% indel clones)", "setting": "[4]", "result": 5.5}
    ]},
    {"sequence": "GGCTTATTACCTTGGATGCGAAGAAGGGAAGCTCGGTGAC (double strand) [107835L target]", "values": [
      {"measurement": "activity (% indel clones)", "setting": "[5]", "result": 0.7}
    ]},
    {"sequence": "GTCACCGAGCTTCCCTTCTTCGCATCCAAGGTAATAAGCC (double strand) [107835R target]", "values": [
      {"measurement": "activity (% indel clones)", "setting": "[6]", "result": 0.7}
    ]},
    {"sequence": "GTTATGCCAGCATGACCACCAACTACTGGGAGATTGACCTCTGAA (double strand) [107833L target]", "values": [
      {"measurement": "activity (% indel clones)", "setting": "[7]", "result": 2}
    ]},
    {"sequence": "TTCAGAGGTCAATCTCCCAGTAGTTGGTGGTCATGCTGGCATAAC (double strand) [107833R target]", "values": [
      {"measurement": "activity (% indel clones)", "setting": "[8]", "result": 2}
    ]}
  ]
}
